B1: 9-B11: mouse anti-α11β1 mAb; VH SEQ ID NO: 115, VL SEQ ID NO: 116 (antibody, V domains shown)
VH: QVQLQQPGAELVRPGTSVKLSCKASGYTFTSYWMHWVQQRPGQGLEWIGVIDPSDSYTNYNQKFKGKATLTVDTSSSSAYMQLSSLTSEDSAVYYCARDDVAMDYWGQGTSVTVSS
VL: DIVVTQSPASLAVSLGQRATISCRASESVDSYGNSFIHWYQQKPGQPPKLLIYRASNLKSGIPARFSGSGSRTDFTLTINPVEADDVATYYCQQSNEDPYTFGGGTKLEIK
B2: 6-M8: mouse anti-α11β1 mAb; VH SEQ ID NO: 129, VL SEQ ID NO: 130 (antibody, V domains shown)
VH: QVQLQQPGAELVMPGASVKLSCKASGYTFTNYWMHWVKQRPGQGLEWIGEIDPSDSYTNYNQKFKGKATLTVDKSSSTAYMQLSSLTSEDSAVYYCTRQGSTYAWGQGTSVTVSS
VL: DIVMTQAAFSNPVTLGTSASISCRSSKSLLHSNGITYLYWYLQKPGQSPQLLIYQMSNLASGVPDRFSSSGSGTDFTLRISRVEAEDVGVYYCAQNLELPPTFGGGTKLEIK
B3: 7D8B10: rat anti-α11β1 mAb; VH SEQ ID NO: 153, VL SEQ ID NO: 154 (antibody, V domains shown)
VH: MDLRLTYVFIVAILKGVLCEVKLEESGGGLVQPGMSVKLSCATSGFIFSDYWMEWVRQAPGKGLEWVAEIRNKANNYATYYGKSMKGRFTISRDDSKSIVYLQVNSIRSEDTAIYYCAPNFDYWGQGVMVTVSS
VL: MSPVQSLFLLLLWILGTHGDVVLTQTPPTLSATIGQSVSISCRSSQSLLHSTGNTYLNWLLQRPGQPPQLLIYLVSRLESGVPNRFSASGSGTDFTLKISGIEAEDLGVYYCVQSSHTPYTFGTGTKLELK
B4: 6G4: rabbit anti-α11β1 mAb; heavy chain SEQ ID NO: 181, light chain SEQ ID NO: 182 (antibody)
heavy: METGLRWLLLVAVLKGVQCQQQLEESGGGLVKPGGTLTLTCKASGVALNPYYYMCWVRQAPGKGLEWIACVDADSSGSTYYASWAKGRFTISKTSSTTVTLKMTSLTAADTATYFCARESVDYSSVGIGYVHGTDGLWGPGTLVTVSSGQPKAPSVFPLAPCCGDTPSSTVTLGCLVKGYLPEPVTVTWNSGTLTNGVRTFPSVRQSSGLYSLSSVVSVTSSSQPVTCNVAHPATNTKVDKTVAPSTCSKPMCPPPELPGGPSVFIFPPKPKDTLMISRTPEVTCVVVDVSQDDPEVQFTWYINNEQVRTARPPLREQQFNSTIRVVSTLPIAHQDWLRGKEFKCKVHNKALPAPIEKTISKARGQPLEPKVYTMGPPREELSSRSVSLTCMINGFYPSDISVEWEKNGKAEDNYKTTPTVLDSDGSYFLYSKLSVPTSEWQRGDVFTCSVMHEALHNHYTQKSISRSPGK
light: MDTRAPTQLLGLLLLWLPGARCADIVVTQTPSSVSAAVGGTVTIKCQASQSISNYFSWYQQKPGQPPKLLIYRASTLASGVPSRFKGSGSGTEFTLTISDLECADAATYYCQCTYGRSNSNFFYGFGGGTEVVVKGDPVAPTVLIFPPAADQVATGTVTIVCVANKYFPDVTVTWEVDGTTQTTGIENSKTPQNSADCTYNLSSTLTLTSTQYNSHKEYTCKVTQGTTSVVQSFNRGDC
B5: 7-H14: mouse anti-α11β1 mAb; VH SEQ ID NO: 121, VL SEQ ID NO: 122 (antibody, V domains shown)
VH: QVQLQQPGAELVRPGASVKLSCKPSGYTFTSYWMNWVKQRPGQGLEWIGMIDPSDSETHYNQMFKDKATLTVDKSSNTAYMQLSSLTSEDSAVYYCAQIYYAYDKAYWGQGTLVTVSA
VL: DIVMSQSPSSLAVSVGEKVTMSCKSSQSLLYSSHQKNYLAWYQQKPGQSPKLLIYWASTRESGVPDRFTGSGSGTDFSLTISSVKAEDLAVYYCQEYYSWTFGGGTKLEIK
B6: 6F9: rabbit anti-α11β1 mAb; heavy chain SEQ ID NO: 183, light chain SEQ ID NO: 184 (antibody)
heavy: METGLRWLLLVAVLKGVQCQSLEESGGDLVKPGASLTLTCTASGSSFSSTYWNCWVRQAPGKGLEWIACINAGSGTTYYASWAKGRFTVSKTSSTTVTLQMTSLTAADTATYFCTRDSDGRFSSGYYFNLWGPGTLVTVSSGQPKAPSVFPLAPCCGDTPSSTVTLGCLVKGYLPEPVTVTWNSGTLTNGVRTFPSVRQSSGLYSLSSVVSVTSSSQPVTCNVAHPATNTKVDKTVAPSTCSKPMCPPPELPGGPSVFIFPPKPKDTLMISRTPEVTCVVVDVSQDDPEVQFTWYINNEQVRTARPPLREQQFNSTIRVVSTLPIAHQDWLRGKEFKCKVHNKALPAPIEKTISKARGQPLEPKVYTMGPPREELSSRSVSLTCMINGFYPSDISVEWEKNGKAEDNYKTTPTVLDSDGSYFLYSKLSVPTSEWQRGDVFTCSVMHEALHNHYTQKSISRSPGK
light: MDTRAPTQLLGLLLLWLPGATFAQVLTQTASPVSAAVGGTVTINCQSSQSVYDNNWLAWYQQKPGQPPKLLIDDASKLTSGVSSRFKGSGSGTQFTLTISGVQCDDAATYYCQGAYYSSGWYWAFGGGTEVVVKGDPVAPTVLIFPPAADQVATGTVTIVCVANKYFPDVTVTWEVDGTTQTTGIENSKTPQNSADCTYNLSSTLTLTSTQYNSHKEYTCKVTQGTTSVVQSFNRGDC
B7: 6-A12: mouse anti-α11β1 mAb; VH SEQ ID NO: 127, VL SEQ ID NO: 128 (antibody, V domains shown)
VH: QVTLKESGPGILQPSQTLSLTCSFSGFSLRTFAMGVGWIRQPSGKGLEWLAHIWWDDDKYYNPALKSRLTISKDTSKNQVFLKIANVDTADTATYYCARMPLTFYFDYWGQGTTLTVSS
VL: DVLMTQTPLSLPVSLGDQASISCRSSQSIVHSNGNTYLEWYLQKPGQSPKLLIYKVSTRFSGVPDRFSGSGSGTDFTLKISRVEAEDLGVYYCFQGSHVPFTFGGGTKLEIK

What follows are molecules tested on α1β1, α2β1 and/or α10β1 (assay: Counter-screen for cross-reactivity to other collagen receptors). Details: cross-reactivity to α1β1, α2β1, α10β1.
Format: binding, human
Method: Wistar rats were immunized with recombinant human α11β1 protein. An enzyme-linked immunosorbent assay (ELISA) was used to test an immune response against target human and mouse proteins. Subsequently, cell fusion (by electro fusion) was performed with animals that produced a good immune response. All fused cells were plated in a 96-well plate and supernatants were screened by ELISA against soluble human and mouse α11β1. Positive clones were counter-screened against human α1β1, α2β1 and α10β1. […] Purified antibodies were then generated from the selected clones and heavy chain and light chain variable domain sequences were obtained from each purified antibody.
10 mice from 5 different strains were immunized with an appropriate mixture of human α11β1, mouse α11β1 and tolerance breaking protein. Plasma titers were evaluated by ELISA against a mixture of human and mouse α11β1. Popliteal, inguinal, and iliac lymph nodes were collected. ELISA-positive anti-human/mouse α11β1 hybridomas were expanded and subjected to a secondary screen against human and mouse α11β1, control HIS protein, and a counter-screen was performed against human […], α2β1 and α10β1. Supernatant IgG concentration was sufficient for functional screening. Selected hybridomas satisfying all the criteria were cloned and clonal hybridomas were confirmed by ELISA against human and mouse α11β1 and subsequently scaled-up and IgGs were purified. Heavy and light chain variable regions of selected hybridomas were then sequenced.
α11β1 belongs to a family of collagen receptors and has a relatively high homology to them. Therefore, the novel antibodies of this invention were counter-screened against α1β1, α2β1 and/or α10β1. Table 2 includes results of cross-reactivity to the other receptors.
In the case of B1, the “Off Target” value is reported as “No”.
B2 was tested, and the “Off Target” value was “No”.
B3 was tested, and the “Off Target” value was “No”.
B4 was tested, and the “Off Target” value was “No”.
For B5, the “Off Target” value was “No”.
In the case of B6, the “Off Target” value is reported as “No”.
In the case of B7, the “Off Target” value is reported as “No”.

Each molecule was assayed against T1, I domain of α11β1 (Homo sapiens, UniProt Q9UKX5) (assay: ELISA binding to in-house generated I domain of α11β1). Details: Yes/No.
T1 construct: An in-house generated I domain of α11β1 was used; made in house
T1 sequence (Q9UKX5 164-345 limits assumed): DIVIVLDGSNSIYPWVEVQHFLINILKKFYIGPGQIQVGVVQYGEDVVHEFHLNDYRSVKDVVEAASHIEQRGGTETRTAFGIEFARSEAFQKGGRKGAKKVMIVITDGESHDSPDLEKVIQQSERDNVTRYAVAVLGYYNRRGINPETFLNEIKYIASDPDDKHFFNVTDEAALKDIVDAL
Method: 0.25 μg/mL of target antigen (recombinant human or mouse α11β1) was plated in a 96-well plate over night at 4° C. Plates were washed (PBS with 0.1% Tween-20), blocked (PBS with 2% BSA and 0.05% Tween-20) for 1 hour at room temperature and incubated with a range of antibody concentrations for 1 hour at room temperature. Subsequently, plates were washed and incubated with biotinylated anti-rabbit/mouse/human IgG in a 1:1000 dilution buffer and incubated for 1 hour at room temperature. After washing the plates, Streptavidin HRP was added at 1:200 in dilution buffer and incubated for 1 hour at room temperature. Ultra TMB ELISA substrate solution was added and the plates incubated for 5 minutes on a plate shaker. The reaction was stopped by adding stop solution to each well and plates were read at 450 nm.
22 Data was also collected to determine whether antibodies of interest bind to the I domain of α11β1. An in-house generated I domain of α11β1 was used. […] Mouse antibodies 10-F23, 10-L15, 7-O8, 6-A12, 9-G05 and 9-E16 and rabbit antibodies 7-H12 and 2-D3 were also tested for binding against the in-house generated α11031 domain. FIGS. 3A and 3B show graphs illustrating binding data from exemplary mAbs.
In the case of B1, the “I Domain binding” value is reported as “Yes”.
With B2 the “I Domain binding” value was “No”.
B3 was tested, and the “I Domain binding” value was “No”.
In the case of B4, the “I Domain binding” value is reported as “No”.
For B5, the “I Domain binding” value was “No”.
B6 was tested, and the “I Domain binding” value was “No”.
In the case of B7, the “I Domain binding” value is reported as “Yes”.

The molecules below were run on human pulmonary fibroblasts (HPFs) (assay: FACS antibody binding to human pulmonary fibroblasts). Details: binding Yes/No.
Method: Human Pulmonary Fibroblasts (ScienCell) were cultured in complete Fibroblast Growth Medium (ScienCell) until 80% confluent in T-150 flasks. Cells were washed and harvested using Accutase. Cells were seeded into T-150 flasks at 7,500 cells/cm^2 in complete FGF and cultured for 72 hours. Cells were then washed and starved in serum reduced medium for 24 hours. After starvation, cells were treated with TGFβ-1 (R&D Systems) for 72 hours. Cells were harvested using Accutase and seeded in 96-well conical bottom plates. Cells were blocked with Heat Inactived Fetal Bovine Serum (Gibco) for 30 minutes at 4° C. Cells were then incubated with anti-α11 antibodies at the doses described in each figure for 30 minutes at 4° C. A human anti-α11 antibody (Creative BioLabs) was included as a positive control as well as the appropriate IgG isotype negative controls. Cells were washed twice and incubated with PE conjugated secondary antibodies specific to the IgG class of the anti-α11 antibodies being tested for 30 minutes at 4° C. Cells were washed twice and fixed in 1% PFA for 30 minutes. Cells were acquired on a FACS Verse […]. Data were analyzed by gating on single cells and determining the geometric Mean Fluorescence Intensity (gMFI) in the PE channel for each sample.
Binding to a physiologically relevant primary human cell type was also tested. Human pulmonary fibroblasts (HPF) and TGFβ treatment were used to induce a fibroblast-to-myofibroblast transition (FMT), giving rise to myofibroblasts (MF). […] Additionally, HPFs express α11 and α2β1, other collagen binding receptors, which means that HPFs can be to test cross-reactivity of antibodies of interest.
For B1, the “HPF FACS” value was “No”.
For B2, the “HPF FACS” value was “No”.
With B3 the “HPF FACS” value was “No”.
For B4, the “HPF FACS” value was “No”.
With B5 the “HPF FACS” value was “No”.
For B6, the “HPF FACS” value was “No”.
For B7, the “HPF FACS” value was “No”.
